Data set [1] in a line: UGT enzyme reaction with cytokinins. Format: biochemical. To be noted: cytokinins, 0.5 mM, 30° C., 3 h. How it is done:
The assay mix (200 μl) contained 2 μg of recombinant protein, 100 mM Tris-HCl, pH 8.0, 5 mM UDP-glucose 0.5 mM ATP, 50 mM MgCl2, and 0.5 mM of cytokinin. The reaction was carried out at 30° C. for 3 h, and was quick-frozen and stored at −20° C. prior to the reverse-phase HPLC analysis
Reverse-phase HPLC (SpectraSYSTEM HPLC systems and UV6000LP Photodiode Array Detector, ThermoQuest) analysis was carried using a Columbus 5μ C18 column (250×4.60 mm, PHENOMENEX). Quercetin glucosides were separated from the aglycone by a linear gradient of 10-75% acetonitrile in H2O (all solution contained 0.1% trifluoroacetic acid) at 1 ml/mm over 20 mm and monitored at 370 nm. Cytokinin glucosides were separated from their aglycone by a liner gradient of 10-100% methanol in H2O (for N6-isopentenyladenine (iP), N6-benzyladenine and kinetin) or 10-60% methanol in H2O (for trans-zeatin and dihydrozeatin) at 1 ml/min over 20 mm. All solution contained 0.25% acetic acid and 0.04% triethylamine, trifluoroacetic acid. The separation was monitored at 206 nm and 252 nm. The identity of the products was confirmed by comparison with authentic gluco sides.
• 1. 7-N-glucoside (76C1, 76C2) • 2. 9-N-glucoside (76C1, 76C2) • 3. O-glucoside (only apply to trans-Zeatin and dihydrozeatin) (85A1 for trans-Zeatin; 85A1 and 73C5 for dihydrozeatin) Large Scale Fermentation

A short description of data set [2]: Whole-cell biocatalyst assay, E. coli expressing UGT in culture medium. Type of data set: cell-based. Particulars: E. coli, 2x YT medium, 0.1 mM IPTG, 0.1 mM quercetin, 24 h; for Culture medium (μg/ml in supernatant) 3-O-glc: no added UDP-glucose. Here is the method: FIG. 14 Whole-cell biocatalyst assay using UGT71C1. E. coli cells expressing recombinant were used in the biocatalyst assay. After incubation with 0.1 mM quercetin and 0.1 mM IPTG, cells were collected by centrifugation, extracted with 80% methanol and both the cell extracts (pellet) and culture medium (supernatant) were analysed using HPLC. (A) Changes in the combined amounts of aglycone/glucoside over a time-course of 0-48 h. (B) Changes in the level of different glucosides and aglycone in the culture medium over the same time-course.
Using the foundation established in the preceding example, we went on to investigate the potential of E. coli expressing plant UGTs as whole-cell biocatalysts to synthesise glucosides of quercetin. In the first instance, we used E. coli grown in 75 ml of standard culture medium. […] Table 2 describes results in which 7 different UGTs are expressed in E. coli and the identity and quantity of different glucosides recovered in the medium were analysed by HPLC. […] There was considerable variation in the level of different glucosides synthesised by the cells, although even under these non-optimised conditions, each of the four monoglucosides and two di-O-glucosides could be formed.

A short description of data set [3]: UGT enzyme reaction with quercetin (recombinant UGTs, HPLC). Format: biochemical, Arabidopsis. Particulars: for Specific activity (nkat/mg protein) 3-O-glc: quercetin glucosylated at 3-OH; for Specific activity (nkat/mg protein) 3-O-glc / Specific activity (nkat/mg protein) 3′-O-glc / Specific activity (nkat/mg protein) 4′-O-glc / Specific activity (nkat/mg protein) 7-O-glc: 0.5 mM quercetin, 5 mM UDP-glucose, 30° C.; for Specific activity (nkat/mg protein) 3′-O-glc: quercetin glucosylated at 3′-OH; for Specific activity (nkat/mg protein) 4′-O-glc: quercetin glucosylated at 4′-OH; for Specific activity (nkat/mg protein) 7-O-glc: quercetin glucosylated at 7-OH. A digest of the protocol: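 Recombinant Arabidopsis UGTs (2 μg) incubated with 0.5 mM quercetin and 5 mM UDP-glucose in 100 mM Tris-HCl pH 7.0 at 30 °C for 1 h. Quercetin glucosides separated from aglycone by reverse-phase C18 HPLC (acetonitrile gradient, 0.1% TFA), detected at 370 nm.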

B1: UGT76C1: glycosyltransferase, FIG. 9, glucosylates cytokinins (protein, listed as Arabidopsis thaliana)
chain: MEKRNERQVILFPLPLQGCINPMLQLAKILYSRGFSITIIHTRFNAPKSSDHPLFTFLQIRDGLSESQTQSRDLLLQLTLLNNNCQIPFRECLAKLIKPSSDSGTEDRKISCVIDDSGWVFTQSVAESFNLPRFVLCAYKFSFFLGHFLVPQIRREGFLPVPDSEADDLVPEFPPLRKKDLSRIMGTSAQSKPLDAYLLKILDATKPASGIIVMSCKELDHDSLAESNKVFSIPIFPIGPFHIHDVPASSSSLLEPDQSCIPWLDMRETRSVVYVSLGSIASLNESDFLEIACGLRNTNQSFLWVVRPGSVHGRDWIESLPSGFMESLDGKGKIVRWAPQLDVLAHRATGGFLTHNGWNSTLESICEGVPMICLPCKWDQFVNARFISEVWRVGIHLEGRIERREIERAVIRLMVESKGEEIRGRIKVLRDEVRRSVKQGGSSYRSLDELVDRISIIIEPLVPT
With B1, in data set [1], the “Cytokinin products formed by the UGTs: 7-N-glucoside” value is on record as 7-N-glucoside and the “Cytokinin products formed by the UGTs: 9-N-glucoside” value was 9-N-glucoside.

B2: UGT76E12: Arabidopsis recombinant glycosyltransferase (protein, UniProt Q94AB5 1-458, looked up)
Flavonol …: MQVLGMEEKPARRSVVLVPFPAQGHISPMMQLAKTLHLKGFSITVVQTKFNYFSPSDDFTHDFQFVTIPESLPESDFKNLGPIQFLFKLNKECKVSFKDCLGQLVLQQSNEISCVIYDEFMYFAEAAAKECKLPNIIFSTTSATAFACRSVFDKLYANNVQAPLKETKGQQEELVPEFYPLRYKDFPVSRFASLESIMEVYRNTVDKRTASSVIINTASCLESSSLSFLQQQQLQIPVYPIGPLHMVASAPTSLLEENKSCIEWLNKQKVNSVIYISMGSIALMEINEIMEVASGLAASNQHFLWVIRPGSIPGSEWIESMPEEFSKMVLDRGYIVKWAPQKEVLSHPAVGGFWSHCGWNSTLESIGQGVPMICRPFSGDQKVNARYLECVWKIGIQVEGELDRGVVERAVKRLMVDEEGEEMRKRAFSLKEQLRASVKSGGSSHNSLEEFVHFIRTL
As for B2, in data set [2], the “Culture medium (μg/ml in supernatant) 3,7-di-O-glc” value worked out at 0.71 µg/mL, the “Culture medium (μg/ml in supernatant) 7-O-glc” value stood at 4.74 µg/mL and the “Culture medium (μg/ml in supernatant) 3-O-glc” value is 1.41 µg/mL. The “di-O-glucoside formation from quercetin” value in data set [3] (low substrate concentration, time parameter varied) is reported as “significant levels of di-O-glucosides”. In addition, in data set [3], the “Specific activity (nkat/mg protein) 3-O-glc” value came out at 1.16 nkat/mg protein; the “Specific activity (nkat/mg protein) 3′-O-glc” value is “— (Activity lower than 0.02 nkat/mg protein has been considered as trace activity and is not shown in the Table.)”; the “Specific activity (nkat/mg protein) 4′-O-glc” value is “— (Activity lower than 0.02 nkat/mg protein has been considered as trace activity and is not shown in the Table.)”; the “Specific activity (nkat/mg protein) 7-O-glc” value is given as 1.35 nkat/mg protein.

B3: UGT84B1: Arabidopsis recombinant glycosyltransferase (protein, UniProt O22182 1-456, looked up)
UDP-glycosyltransferase 84B1: MGSSEGQETHVLMVTLPFQGHINPMLKLAKHLSLSSKNLHINLATIESARDLLSTVEKPRYPVDLVFFSDGLPKEDPKAPETLLKSLNKVGAMNLSKIIEEKRYSCIISSPFTPWVPAVAASHNISCAILWIQACGAYSVYYRYYMKTNSFPDLEDLNQTVELPALPLLEVRDLPSFMLPSGGAHFYNLMAEFADCLRYVKWVLVNSFYELESEIIESMADLKPVIPIGPLVSPFLLGDGEEETLDGKNLDFCKSDDCCMEWLDKQARSSVVYISFGSMLETLENQVETIAKALKNRGLPFLWVIRPKEKAQNVAVLQEMVKEGQGVVLEWSPQEKILSHEAISCFVTHCGWNSTMETVVAGVPVVAYPSWTDQPIDARLLVDVFGIGVRMRNDSVDGELKVEEVERCIEAVTEGPAAVDIRRRAAELKRVARLALAPGGSSTRNLDLFISDITIA
Turning to B3, the “Culture medium (μg/ml in supernatant) 7-O-glc” value in data set [2] came out at 4.83 µg/mL. In data set [3], the “Specific activity (nkat/mg protein) 3-O-glc” value is “— (Activity lower than 0.02 nkat/mg protein has been considered as trace activity and is not shown in the Table.)”; the “Specific activity (nkat/mg protein) 3′-O-glc” value is “— (Activity lower than 0.02 nkat/mg protein has been considered as trace activity and is not shown in the Table.)”; the “Specific activity (nkat/mg protein) 4′-O-glc” value was “— (Activity lower than 0.02 nkat/mg protein has been considered as trace activity and is not shown in the Table.)”; the “Specific activity (nkat/mg protein) 7-O-glc” value came to 0.14 nkat/mg protein.

B4: UGT78D2: Arabidopsis recombinant glycosyltransferase, FIG. 5 (protein, listed as Arabidopsis thaliana)
chain: MTKPSDPTRDSHVAVLAFPFGTHAAPLLTVTRRLASASPSTVFSFFNTAQSNSSLFSSGDEADRPANIRVYDIADGVPEGYVFSGRPQEAIELFLQAAPENFRREIAKAETEVGTEVKCLMTDAFFWFAADMATEINASWIAFWTAGANSLSAHLYTDLIRETIGVKEVGERMEETIGVISGMEKIRVKDTPEGVVFGNLDSVFSKMLHQMGLALPRATAVFINSFEDLDPTLTNNLRSRFKRYLNIGPLGLLSSTLQQLVQDPHGCLAWMEKRSSGSVAYISFGTVMTPPPGELAAIAEGLESSKVPFVWSLKEKSLVQLPKGFLDRTREQGIVVPWAPQVELLKHEATGVFVTHCGWNSVLESVSGGVPMICRPFFGDQRLNGRAVEVVWEIGMTIINGVFTKDGFEKCLDKVLVQDDGKKMKCNAKKLKELAYEAVSSKGRSSENFRGLLDAVVNII
For B4, the “Culture medium (μg/ml in supernatant) 3-O-glc” value in data set [2] stood at 6.83 µg/mL. Moreover, in data set [3], the “Specific activity (nkat/mg protein) 3-O-glc” value is 31.60 nkat/mg protein; the “Specific activity (nkat/mg protein) 3′-O-glc” value is “— (Activity lower than 0.02 nkat/mg protein has been considered as trace activity and is not shown in the Table.)”; the “Specific activity (nkat/mg protein) 4′-O-glc” value is “— (Activity lower than 0.02 nkat/mg protein has been considered as trace activity and is not shown in the Table.)”; the “Specific activity (nkat/mg protein) 7-O-glc” value is “— (Activity lower than 0.02 nkat/mg protein has been considered as trace activity and is not shown in the Table.)”.

B5: UGT89B1: Arabidopsis recombinant glycosyltransferase (protein, UniProt Q9C9B0 1-473, looked up)
Flavonol …: MKVNEENNKPTKTHVLIFPFPAQGHMIPLLDFTHRLALRGGAALKITVLVTPKNLPFLSPLLSAVVNIEPLILPFPSHPSIPSGVENVQDLPPSGFPLMIHALGNLHAPLISWITSHPSPPVAIVSDFFLGWTKNLGIPRFDFSPSAAITCCILNTLWIEMPTKINEDDDNEILHFPKIPNCPKYRFDQISSLYRSYVHGDPAWEFIRDSFRDNVASWGLVVNSFTAMEGVYLEHLKREMGHDRVWAVGPIIPLSGDNRGGPTSVSVDHVMSWLDAREDNHVVYVCFGSQVVLTKEQTLALASGLEKSGVHFIWAVKEPVEKDSTRGNILDGFDDRVAGRGLVIRGWAPQVAVLRHRAVGAFLTHCGWNSVVEAVVAGVLMLTWPMRADQYTDASLVVDELKVGVRACEGPDTVPDPDELARVFADSVTGNQTERIKAVELRKAALDAIQERGSSVNDLDGFIQHVVSLGLNK
For the molecule B5, in data set [2], the “Culture medium (μg/ml in supernatant) 4′-O-glc” value was found to be 0.94 µg/mL, the “Culture medium (μg/ml in supernatant) 7-O-glc” value worked out at 2.36 µg/mL and the “Culture medium (μg/ml in supernatant) 3-O-glc” value was 1.08 µg/mL. Besides, in data set [3], the “Specific activity (nkat/mg protein) 3-O-glc” value was 2.05 nkat/mg protein; the “Specific activity (nkat/mg protein) 3′-O-glc” value was “— (Activity lower than 0.02 nkat/mg protein has been considered as trace activity and is not shown in the Table.)”; the “Specific activity (nkat/mg protein) 4′-O-glc” value was found to be 3.38 nkat/mg protein; the “Specific activity (nkat/mg protein) 7-O-glc” value came out at 3.22 nkat/mg protein.

These data come from patent US7662583B2, “Bioreactor containing cells expressing glycosyltransferase nucleic acids isolatable from Arabidopsis” (The University of York, priority 2003, dated 2010).
